Legend:
[1] = system: hPSC-derived foregut spheroids; experiment: Fundus specification protocol: Wnt signaling at days 6-9 of gastric organoid differentiation, qPCR; assay type: cell-based, human; details: Wnt3a at 100 ng/mL and 500 ng/mL
Protocol: Next, the function of Wnt signaling in the regulation of fundus-antrum patterning at days 6-9 of the gastric organoid differentiation protocol was tested. Addition of Wnt3a (at 100 ng/mL and 500 ng/mL) had no effect on spheroid gene expression, but it […] expression of the Wnt target gene Axin2. Thus, the effects of the small molecule CHIR99021 (CHIR; 2 uM) were tested. CHIR99021 stimulates Wnt signaling in a receptor-independent fashion.
Analysis was performed using the ΔΔCT method.

[2] = system: hPSC-derived definitive endoderm (DE) cultures; experiment: Endoderm patterning of hPSC-derived DE cultures with growth factors/antagonists, qPCR and immunofluorescence; assay type: cell-based, human
Protocol: Following DE induction, cells were treated for three days with growth factors/antagonists in RPMI 1640 with 2.0% dFBS. […] RA (2 μM; Sigma Aldrich) is added on the final day. Three-dimensional growth and antral specification. Posterior foregut spheroids were embedded in Matrigel (BD Biosciences) as previously described^10, 12 and subsequently grown in Advanced DMEM/F12 (Invitrogen) supplemented with N2 (Invitrogen), B27 (Invitrogen), L-glutamine, 10 μM HEPES, penicillin/streptomycin, and EGF (100 ng ml^−1; R&D Systems). For antral specification, RA and noggin were added for the first three days of three-dimensional growth. For endocrine cell specification, the EGF concentration is lowered to 10 ng ml^−1 at day 30.
The media was changed every day.
All tissues were fixed in 4% paraformaldehyde for either one hour at room temperature for frozen processing or overnight at 4° C. for paraffin processing. For frozen sections, tissue was protected in 30% sucrose overnight at 4° C., then embedded in OCT (Tissue-Tek), and cut at 10 μm. For paraffin sections, tissue was processed through a graded ethanol series, followed by xylene, and then embedded in paraffin and cut at 7 μm. Tissue culture cells were fixed for 15 minutes at room temperature and stained directly. For staining, frozen slides were thawed to room temperature and rehydrated in PBS, while paraffin slides were deparaffinized and subjected to antigen retrieval. Slides were blocked in 5% normal donkey serum (Jackson Immuno Research) in PBS plus 0.5% Triton-X for 30 minutes at room temperature. Primary antibodies (listed in Methods Table 1) were diluted in blocking buffer and incubated overnight at 4° C. Slides were washed in PBS and incubated with secondary antibody for one hour at room temperature, and coverslips were mounted using Fluoromount-G (Southern Biotech). Confocal images were captured on a Nikon A1Rsi inverted confocal microscope.

[3] = DE cultures after three days, even in the presence of WNT/FGF

B1: Wnt3a: recombinant WNT3A, Wnt ligand (R&D Systems) (protein, UniProt P56704 19-352, looked up)
Protein Wnt-3a: SYPIWWSLAVGPQYSSLGSQPILCASIPGLVPKQLRFCRNYVEIMPSVAEGIKIGIQECQHQFRGRRWNCTTVHDSLAIFGPVLDKATRESAFVHAIASAGVAFAVTRSCAEGTAAICGCSSRHQGSPGKGWKWGGCSEDIEFGGMVSREFADARENRPDARSAMNRHNNEAGRQAIASHMHLKCKCHGLSGSCEVKTCWWSQPDFRAIGDFLKDKYDSASEMVVEKHRESRGWVETLRPRYTYFKVPTERDLVYYEASPNFCEPNPETGSFGTRDRTCNVSSHGIDGCDLLCCGRGHNARAERRREKCRCVFHWCCYVSCQECTRVYDVHTCK
effect on spheroid gene expression [1]: no effect | expression of the Wnt target gene Axin2 [1]: did induce

B2: Noggin: BMP antagonist / BMP inhibitor (R&D Systems) (protein, UniProt Q13253 28-232, looked up)
Noggin: QHYLHIRPAPSDNLPLVDLIEHPDPIFDPKEKDLNETLLRSLLGGHYDPGFMATSPPEDRPGGGGGAAGGAEDLAELDQLLRQRPSGAMPSEIKGLEFSEGLAQGKKQRLSKKLRRKLQMWLWSQTFCPVLYAWNDLGSRFWPRYVKVGSCFSKRSCSVPEGMVCKPSKSVHLTVLRWRCQRRGGQRCGWIPIQYPIISECKCSC
CDX2 expression [2, 3]: repressed | foregut marker SOX2 expression [2, 3]: induced | BMP target genes MSX1/2, qPCR ([2]; response to noggin): suppressed

From US12241090B2, “Methods and systems for converting precursor cells into gastric tissues through directed differentiation” (CHILDREN'S HOSPITAL MEDICAL CENTER, priority 2014, dated 2025)
